Measured values published in the supplement of paper PMC9170038.

Test system: MS2 coat protein
Experiment: apparent KD of MS2 coat protein; designed switch direction (-1 OFF switch, 1 ON switch): -1; higher = weaker reporter binding
Outline: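 The buffer was Tris-HCl pH 7.5 with KCl, MgCl2, BSA, DTT, tRNA and Tween-20. In it, SNAP-549-labelled MS2 coat protein was titrated in doubling steps from 0.7 or 1.5 nM to 3 µM over chip-bound RNA switches transcribed by stalled E. coli RNA polymerase on Illumina chips. Apparent KD is the per-design median over clusters of curve fits to normalised fluorescence.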

[1] = input ligand: microRNA oligo, concentration not stated
[2] = Eterna round: R95, input ligand: microRNA oligo, concentration not stated
[3] = Eterna round: R95, input ligand: FMN 200 uM
[4] = Eterna round: R95, input ligand: none

| Sequence | apparent KD of MS2 coat protein (input ligand: FMN 200 uM) [nM] | apparent KD of MS2 coat protein (input ligand: none) [nM] | apparent KD of MS2 coat protein [1] [nM] | apparent KD of MS2 coat protein [2] [nM] | apparent KD of MS2 coat protein [3] [nM] | apparent KD of MS2 coat protein [4] [nM] |
| --- | --- | --- | --- | --- | --- | --- |
| GCACGACAUGAGGAUCACCCAUGUGAGGAUAUUUAGACGCCUGUGAAUGCAGCCAUUUAGAGAAGGCAUUGGGU [Eternabot (L1) Solution 99] (Eterna round: R97, puzzle: Exclusion 1) | 129 | 43.9 |  |  |  |  |
| GCACGGAGUGUAGGAUAUCUGUGCGAUUAGCUCAGAGAAGGACACAUGAGGAUCACCCAUGUGUUCCACGGAAACGUUCCGUGC [Eli exng1 - 049] (Eterna round: R96, puzzle: Exclusion NG 1) | 8.96 | 11.9 | 7.93 |  |  |  |
| GCACGGAGUGUAGGAUAUUAGUGCGAUUAGCACUGAGAAGGACAUGAGGAUCACCCAUGUUCCUCUAAAAUUAGCCUUCCGUGC [Eli exng1 - 036] (Eterna round: R96, puzzle: Exclusion NG 1) | 12.4 | 14.8 | 10.7 |  |  |  |
| GCACGGAUCGUAGGAUAUCAUUGCGAUUAGCUAUGAGAAGGACGACAUGAGGAUCACCCAUGUCCUCUAAUUAGCCUUCCGUGC [Eli exng1 - 017] (Eterna round: R96, puzzle: Exclusion NG 1) | 52.9 | 38.5 | 21.8 |  |  |  |
| GCACGGAUGGUAGGAUAUCUGUGCGAUUAGCUCAGAGAAGGACCACAUGAGGAUCACCCAUGUACCUCAAUUAACCUUCCGUGC [Eli exng1 - 021] (Eterna round: R96, puzzle: Exclusion NG 1) | 16.9 | 17.6 | 21 |  |  |  |
| GCACGGUAAGUGAGGAUAUACCUCUGGAUACAGAGGUAGAAGGCACAUGAGGAUCACCCAUGUCUCAGCCGUGC [Fiskers BMX 4 - 87] (puzzle: Brourd's mod of Exclusion 4) |  |  |  | 16.8 |  |  |
| GCACUGCGAGGAUAUACAUGAGGAUCACCCAUGUGUCGGCAGCCAUGUCAGUACAAAUGUAGAAGGCGCGUAAA [EX3 #54] (Eterna round: R97, puzzle: Exclusion 3) | 87.5 | 28.8 |  |  |  |  |
| GCAGAAUACUAGGAUAUGUUGGUCGGAGGGCCAACAGAAGGAGUUACAUGAGGAUCACCCAUGUUCCCAAUGGG [Eternabot (Original) Solution 49] (Eterna round: R97, puzzle: Exclusion 6) | 66.1 | 52.7 |  |  |  |  |
| GCAGAAUGAGUUAGGAUAUGAUGAUUUUUCGGAAAUCAGAAGGAACUUGAGGAUCACCCAAGUAAAGAUAGGGU [JR_BMEx4_Sub064] (Eterna round: R97, puzzle: Brourd's mod of Exclusion 4) | 358 | 236 |  |  |  |  |
| GCAGAAUGAGUUAGGAUAUGAUGAUUUUUCGGAAAUCAGAAGGAACUUGAGGAUCACCCAAGUUAAGAUAGGGU [JR_BMEx4_Sub065] (Eterna round: R97, puzzle: Brourd's mod of Exclusion 4) | 229 | 85 |  |  |  |  |
| GCAGCAACUCUAAUCAAACCAACAUGAGGAUCACCCAUGUCUCAGGAUAUGGUCUGGAUUACAGGCCAGAAGGGAGAAAGCUGC [Eli exng3 - 047] (Eterna round: R96, puzzle: Exclusion NG 3) | 11.6 | 14.9 | 11.4 |  |  |  |
| GCAGCAACUCUAAUCAAAUCAACAUGAGGAUCACCCAUGUCUCAGGAUAUGGUCUGGAUUACAGGCCAGAAGGGAGAAAGCUGC [Eli exng3 - 048] (Eterna round: R96, puzzle: Exclusion NG 3) | 16.5 | 16.6 | 13.9 |  |  |  |
| GCAGCACAUGUAGGAUAUCUGCACGAUUAGUGCAGAGAAGGACAUGAGGAUCACCCAUGUAAUUAAGAUCAAUUAUUAAGCUGC [ENG1/3-C1] (Eterna round: R96, puzzle: Exclusion NG 1) | 374 | 46.1 | 36.4 |  |  |  |
| GCAGCACAUGUAGGAUAUCUGCACGUUUAGUGCAGAGAAGGACAUGAGGAUCACCCAUGUAAUUAAGAUCAAUUAUUAAGCUGC [ENG1/3-C2] (Eterna round: R96, puzzle: Exclusion NG 1) | 178 | 44.2 | 32.1 |  |  |  |
| GCAGCGUAUGUAGGAUAUCGGUCAGUUUCUGAUCGAGAAGGACAUGAGGAUCACCCAUGUAUUAUCAUGCGUGAGCAUGGCUGC [JL ENG1 3.71] (Eterna round: R96, puzzle: Exclusion NG 1) | 499 | 152 | 115 |  |  |  |
| GCAGCUAAGUGUAAUAACACAAUACAUGAGGAUCACCCAUGUGAGGAUAUGGACUGGAUUACAGUCCAGAAGGCACAAUGCUGC [Zipper Style 4] (Eterna round: R96, puzzle: Exclusion NG 3) | 17.2 | 20.9 | 16.2 |  |  |  |
| GCAGCUAGUUCAGGAUAUCAGCACGAUUAGUGCUGAGAAGGGAACAUGAGGAUCACCCAUGUGAUCAAUGCUGCAAUUUUAAUU [ENG1/12-A1] (Eterna round: R96, puzzle: Exclusion NG 1) | 481 | 597 | 235 |  |  |  |
| GCAGGAUAAGUGAGGAUAUACCUCUGGAUACAGAGGUAGAAGGUACAUGAGGAUCACCCAUGUCUAUAACCUGC [Fiskers BMX 4 - 80] (puzzle: Brourd's mod of Exclusion 4) |  |  |  | 12.9 |  |  |
| GCAGGCGUCUUGGCUCGUCUUAUUUUGAGAGGAUUGAUAACAUGAGGAUCACCCAUGUUUGUGGGAGAGUUGCAGUG [JR_SV3TOV2_Sub016] (puzzle: Sensor v3, turn-off variant 2) |  |  |  | 283 | 108 | 133 |
| GCAGGUUAAGUCAGGAUAUACCUAUGGAUACAUAGGUAGAAGGGACAUGAGGAUCACCCAUGUGUCUCGCCUGC [Fiskers BMX 4 - 70] (puzzle: Brourd's mod of Exclusion 4) |  |  |  | 62.7 |  |  |
| GCCGAAAGUGUGAGGAUAUACCUAUGGAAACAUAGGUAGAAGGCACAUGAGGAUCACCCAUGUGGGAAAACGGC [Mat - Exclusion 4 - Eli Mod - D29] (Eterna round: R97, puzzle: Brourd's mod of Exclusion 4) | 322 | 152 |  |  |  |  |
| GCCGAUUAAGUCAGGAUAUACCUAUGGAUACAUAGGUAGAAGGGACAUGAGGAUCACCCAUGUGCCUCAACGGC [Fiskers BMX 4 - 18] (puzzle: Brourd's mod of Exclusion 4) |  |  |  | 18.9 | 71.7 | 22.7 |
